# Measured values published in the supplement of paper PMC10567573.
# B1: P2RY14 (parent)
# chain: KKIFKSHLKSSRNSTSVKKKSSRN
# Variants of: B1
# Assay: protein stability index of a GFP-peptide fusion (GPS, HEK-293T) (PSI 1-6); higher = more stable
# Settings: c terminus: a fixed tail appended
# 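Note: lentivirally expressed fusions sorted by FACS into six bins by GFP to DsRed ratio, PSI derived from sequencing read proportions per bin multiplied by bin number.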
row,Variant,protein stability index
1,KKIFKSSLKSSRNSTSVKKKSSRN,4.15
2,KKIFKSKLKSSRNSTSVKKKSSRN,4.39
3,KKIFKSRLKSSRNSTSVKKKSSRN,4.28
4,KKIFKSELKSSRNSTSVKKKSSRN,4.41
5,KKIFKSWLKSSRNSTSVKKKSSRN,3.3
6,KKIFKSFLKSSRNSTSVKKKSSRN,3.76
7,KKIFKSLLKSSRNSTSVKKKSSRN,3.7
8,KKIFKSMLKSSRNSTSVKKKSSRN,3.79
9,KKIFKSYLKSSRNSTSVKKKSSRN,3.38
10,KKIFRSHLKSSRNSTSVKKKSSRN,3.67
11,KKIFMSHLKSSRNSTSVKKKSSRN,3.95
12,KKIFTSHLKSSRNSTSVKKKSSRN,4.06
13,KKIFASHLKSSRNSTSVKKKSSRN,4.33
14,KKIFESHLKSSRNSTSVKKKSSRN,3.89
15,KKIFPSHLKSSRNSTSVKKKSSRN,4.18
16,KKIFKSHLKSSRKSTSVKKKSSRN,3.95
17,KKIFKSHLKSSRVSTSVKKKSSRN,4.22
18,KKIFKSHLKSSRFSTSVKKKSSRN,3.77
19,KKIFKSHLKSSRHSTSVKKKSSRN,3.52
20,KKIFKSHLKSSRNSTSTKKKSSRN,4.41
21,KKIFKSHLKSSRNSTSAKKKSSRN,4.29
22,KKIFKSHLKSSRNSTSHKKKSSRN,4.1
23,KKIFKSHLKSSRNSTSPKKKSSRN,4.09
24,KKIFKSHLKSSRNSTSSKKKSSRN,4.03

row,Variant,protein stability index
1,KKIFKSHLKSSRNSTSCKKKSSRN,4.17
2,KKIFKSHLKSSRNSTSIKKKSSRN,3.59
3,KKIFKSHLKSSRNSTSRKKKSSRN,4.49
4,KKIFKSHLKSSRNSTSYKKKSSRN,3.99
5,KKIFKSHLKSSRNSTSNKKKSSRN,4.21
6,KKIFKSHLKSSRNSTSVKKKNSRN,4.17
7,KKIFKSHLKSSRNSTSVKKKTSRN,3.8
8,KKIFKSHHKSSRNSTSVKKKSSRN,4.05
9,KKIFKSHVKSSRNSTSVKKKSSRN,4.14
10,KKIFKSHAKSSRNSTSVKKKSSRN,4.56
11,KKIFKSHPKSSRNSTSVKKKSSRN,4.33
12,KKIFKSHKKSSRNSTSVKKKSSRN,4.29
13,KKIFKSHCKSSRNSTSVKKKSSRN,4.39
14,KKIFKSHLKSSRNSTSVKKKSKRN,4.43
15,KKIFKSHLKSSRNSTSVKKKSQRN,4.49
16,KKIFKSHLKSSRNSTSVKKKSLRN,3.48
17,KKIFKSHLKSSRNSTSVKKKSYRN,3.56
18,KKIFKSHLKSSRNSTSVKKKSWRN,3.33
19,KKIFKSHLKSSRNSTSVKKKSRRN,4.13
20,KKIFKSHLKSSRNSTSVKKKSPRN,4.21
21,KKIFKSHLKSSRNSTSVKKKSCRN,4.07
22,KKIFKSHLKSSRNSTSVKKKSMRN,4.19
23,KKIFKSHLKSSVNSTSVKKKSSRN,4.45
24,KKIFKSHLKSSLNSTSVKKKSSRN,4.11

row,Variant,protein stability index
1,KKIFKSHLKSSQNSTSVKKKSSRN,4.16
2,KKIFKSHLKSSANSTSVKKKSSRN,4.17
3,KKIFKSHLKSSENSTSVKKKSSRN,4.08
4,KKIFKSHLKSSTNSTSVKKKSSRN,4.37
5,KKIFKSHLKSSDNSTSVKKKSSRN,4.43
6,KKIFKSHLKSSSNSTSVKKKSSRN,3.94
7,KKIFKSHLKSSMNSTSVKKKSSRN,4.03
8,KKIFKSHLKTSRNSTSVKKKSSRN,4.17
9,KKIFKSHLKWSRNSTSVKKKSSRN,3.46
10,KKIFKSHLKPSRNSTSVKKKSSRN,4.24
11,KKIFKSHLKKSRNSTSVKKKSSRN,4.15
12,KKIFKSHLKFSRNSTSVKKKSSRN,3.38
13,KKIFKSHLKESRNSTSVKKKSSRN,4
14,KKIFKSHLKRSRNSTSVKKKSSRN,4.18
15,KKIFKSHLKLSRNSTSVKKKSSRN,4.02
16,KKIFKSHLKASRNSTSVKKKSSRN,4.08
17,KKIFKSHLKSSRNHTSVKKKSSRN,4.35
18,KKIFKSHLKSSRNWTSVKKKSSRN,3.44
19,KKIFKSHLKSSRNDTSVKKKSSRN,4.14
20,KKIFKSHLKSSRNMTSVKKKSSRN,3.98
21,KKIFKSHLKSSRNRTSVKKKSSRN,4.36
22,KKIFKSHLKSSRNCTSVKKKSSRN,4.31
23,KKIFKSHLKSSRNATSVKKKSSRN,3.5
24,KKIFKSHLKSSRNTTSVKKKSSRN,4.33

row,Variant,protein stability index
1,KKIFKSHLKSSRNKTSVKKKSSRN,4.07
2,KKIFKSHLKSSRNSTSVKKKSSYN,4.07
3,KKIFKSHLKSSRNSTSVKKKSSLN,3.51
4,KKIFKSHLKSSRNSTSVKKKSSHN,3.57
5,KKIFKSHLKSSRNSTSVKKKSSTN,3.88
6,KKIFKSHLKSSRNSTSVKKKSSWN,3.51
7,KKIFKSHLKSSRNSTSVKKKSSDN,4.1
8,KKIFKSHLKSSRNSTSVKKKSSMN,3.76
9,KKIFKSHLKSSRNSTSVKKKSSPN,3.73
10,KKIFKSHLKSSRNSTSVKKKSSNN,4.25
11,KKIFKSHLKSSRNSTSVKKKSSQN,4.38
12,KKIFKSHLKSSRNSTSVKKYSSRN,3.95
13,KKIFKSHLKSSRNSTSVKKQSSRN,4.04
14,KKIFKSHLKSSRNSTSVKKISSRN,3.5
15,KKIFKSHLKSSRNSTSVKKLSSRN,3.42
16,KKIFKSHLKSSRNSTSVKKVSSRN,3.81
17,KKIFKSHLKSSRNSTSVKKRSSRN,4.39
18,KKIFKSHLKSSRNSTSVKKGSSRN,3.43
19,KKIFKSHLKSSRNSTSVKKCSSRN,3.67
20,KKSFKSHLKSSRNSTSVKKKSSRN,4.6
21,KKFFKSHLKSSRNSTSVKKKSSRN,3.91
22,KKHFKSHLKSSRNSTSVKKKSSRN,4.34
23,KKWFKSHLKSSRNSTSVKKKSSRN,3.79
24,KKRFKSHLKSSRNSTSVKKKSSRN,4.44

row,Variant,protein stability index
1,KKIFKSHLKSSRNSTSVKNKSSRN,3.98
2,KKIFKSHLKSSRNSTSVKSKSSRN,3.9
3,KKIFKSHLKSSRNSTSVKWKSSRN,2.96
4,KKIFKSHLKSSRNSTSVKFKSSRN,3.13
5,KKIFKSHLKSSRNSTSVKTKSSRN,3.62
6,KKIFKSHLKSSRNSTSVKGKSSRN,4.02
7,KKIFKSHLKSSRNSTSVKLKSSRN,3.5
8,KKIFKSHLKSSRNSTAVKKKSSRN,4.16
9,KKIFKSHLKSSRNSTKVKKKSSRN,4.07
10,KKIFKSHLKSSRNSTLVKKKSSRN,4.14
11,KKIFKSHLKSSRNSTQVKKKSSRN,4.48
12,KKIFKSHLKSSRNSTDVKKKSSRN,4.08
13,KKIFKSHLKSSRNSTFVKKKSSRN,3.57
14,KKIFKSHLKSSRNSTEVKKKSSRN,4.13
15,KKIFKSHLKSSRNSTHVKKKSSRN,4.45
16,KKIFKSHLKSSRNSTWVKKKSSRN,3.69
17,KKIKKSHLKSSRNSTSVKKKSSRN,4.47
18,KKIQKSHLKSSRNSTSVKKKSSRN,4.71
19,KKIDKSHLKSSRNSTSVKKKSSRN,4.6
20,KKIVKSHLKSSRNSTSVKKKSSRN,4.39
21,KKIGKSHLKSSRNSTSVKKKSSRN,4.56
22,KKIEKSHLKSSRNSTSVKKKSSRN,4.45
23,KKIPKSHLKSSRNSTSVKKKSSRN,4.58
24,KKIIKSHLKSSRNSTSVKKKSSRN,4.3

row,Variant,protein stability index
1,KKIFKSHLKSSRNSTSVKKKSSRK,3.81
2,KKIFKSHLKSSRNSTSVKKKSSRR,4.16
3,KKIFKSHLKSSRNSTSVKKKSSRI,3.61
4,KKIFKSHLKSSRNSTSVKKKSSRH,4.38
5,KKIFKSHLKSSRNSTSVKKKSSRV,4.11
6,KKIFKSHLKSSRNSTSVKKKSSRS,4.07
7,KKIFKSHLKSSRNSTSVKKKSSRW,3.6
8,YKIFKSHLKSSRNSTSVKKKSSRN,3.58
9,GKIFKSHLKSSRNSTSVKKKSSRN,4.51
10,DKIFKSHLKSSRNSTSVKKKSSRN,4.5
11,HKIFKSHLKSSRNSTSVKKKSSRN,4.63
12,AKIFKSHLKSSRNSTSVKKKSSRN,4.12
13,CKIFKSHLKSSRNSTSVKKKSSRN,3.51
14,FKIFKSHLKSSRNSTSVKKKSSRN,3.8
15,WKIFKSHLKSSRNSTSVKKKSSRN,2.7
16,IKIFKSHLKSSRNSTSVKKKSSRN,2.88
17,KAIFKSHLKSSRNSTSVKKKSSRN,3.91
18,KIIFKSHLKSSRNSTSVKKKSSRN,3.35
19,KRIFKSHLKSSRNSTSVKKKSSRN,3.88
20,KWIFKSHLKSSRNSTSVKKKSSRN,3.12
21,KQIFKSHLKSSRNSTSVKKKSSRN,4.04
22,KLIFKSHLKSSRNSTSVKKKSSRN,3.2
23,KMIFKSHLKSSRNSTSVKKKSSRN,3.53
24,KVIFKSHLKSSRNSTSVKKKSSRN,3.73

row,Variant,protein stability index
1,KKIFKSHLKSSRNSMSVKKKSSRN,4.01
2,KKIFKSHLKSSRNSKSVKKKSSRN,3.84
3,KKIFKSHLKSSRNSNSVKKKSSRN,4.45
4,KKIFKSHLKSSRNSGSVKKKSSRN,4.31
5,KKIFKSHLKSSRNSHSVKKKSSRN,4.01
6,KKIFKSHLKSSRNSCSVKKKSSRN,3.63
7,KKIFKSHLKSSRNSWSVKKKSSRN,3.46
8,KKIFKSHLKSSRNSLSVKKKSSRN,3.98
9,KKIFKSHLKSSRNSASVKKKSSRN,4.27
10,KKIFKQHLKSSRNSTSVKKKSSRN,4.07
11,KKIFKHHLKSSRNSTSVKKKSSRN,3.9
12,KKIFKGHLKSSRNSTSVKKKSSRN,4.18
13,KKIFKNHLKSSRNSTSVKKKSSRN,4.57
14,KKIFKDHLKSSRNSTSVKKKSSRN,4.62
15,KKIFKYHLKSSRNSTSVKKKSSRN,3.34
16,KKIFKIHLKSSRNSTSVKKKSSRN,3.5
17,KKIFKCHLKSSRNSTSVKKKSSRN,4.06
18,KKIFKFHLKSSRNSTSVKKKSSRN,3.34
19,KKIFKTHLKSSRNSTSVKKKSSRN,4.11
20,KKIFKSHLKSSRNSTSVQKKSSRN,3.67
21,KKIFKSHLKSSRNSTSVWKKSSRN,2.98
22,KKIFKSHLKSSRNSTSVVKKSSRN,3.74
23,KKIFKSHLKSSRNSTSVPKKSSRN,4.29
24,KKIFKSHLKSSRNSTSVMKKSSRN,4.1

row,Variant,protein stability index
1,KKIFKSHLKSSRNSTSVAKKSSRN,3.8
2,KKIFKSHLKSSRNSTSVEKKSSRN,3.98
3,KKIFKSHLKSSRNSTSVLKKSSRN,3.86
4,KKIFKSHLKSARNSTSVKKKSSRN,3.93
5,KKIFKSHLKSFRNSTSVKKKSSRN,3.69
6,KKIFKSHLKSMRNSTSVKKKSSRN,3.62
7,KKIFKSHLKSNRNSTSVKKKSSRN,3.96
8,KKIFKSHLKSRRNSTSVKKKSSRN,4.44
9,KKIFKSHLKSVRNSTSVKKKSSRN,4.31
10,KKIFKSHLKSKRNSTSVKKKSSRN,3.89
11,KKIFKSHLKSYRNSTSVKKKSSRN,3.37
12,KKIFKSHLKSDRNSTSVKKKSSRN,4.33
13,KKIFKSHLKSHRNSTSVKKKSSRN,4.67
14,KKIFKSHLPSSRNSTSVKKKSSRN,4.47
15,KKIFKSHLMSSRNSTSVKKKSSRN,4
16,KKIFKSHLDSSRNSTSVKKKSSRN,4.05
17,KKIFKSHLLSSRNSTSVKKKSSRN,4.05
18,KKIFKSHLQSSRNSTSVKKKSSRN,4.04
19,KKIFKSHLYSSRNSTSVKKKSSRN,3.67
20,KKIFKSHLWSSRNSTSVKKKSSRN,3.21
